From patent US20100081620A1
Read-outs that look alike come from different tables or passages of the source.

Assays:
[1] = molecular target: Human TACE protease containing the catalytic/disintegrin domains (human) (UniProt P78536); test: cell-based or functional assay
[2] = molecular target: ADAM 10 protein on Ramos cells, U937 cells and B cells; test: cell-based or functional assay
[3] = molecular target: mouse ADAM 10 catalytic domain (mouse) (UniProt O35598); test: enzyme inhibition ('unpublished observation')
[4] = molecular target: Human ADAM10 protease containing the catalytic/disintegrin domains (human) (UniProt O14672); test: enzyme inhibition, fluorescent peptide substrate
[5] = molecular target: Human TACE protease containing the catalytic/disintegrin domains (human) (UniProt P78536); test: enzyme inhibition, fluorescent peptide substrate
[6] = molecular target: MMP 13; test: enzyme inhibition, fluorescent peptide substrate
[7] = molecular target: MMP 14; test: enzyme inhibition, fluorescent peptide substrate
[8] = molecular target: MMP 1; test: enzyme inhibition, fluorescent peptide substrate
[9] = molecular target: MMP 2; test: enzyme inhibition, fluorescent peptide substrate
[10] = molecular target: MMP 3; test: enzyme inhibition, fluorescent peptide substrate
[11] = molecular target: MMP 9; test: enzyme inhibition, fluorescent peptide substrate
[12] = molecular target: TACE catalytic domain (human) (human) (UniProt P78536); test: enzyme inhibition, fluorescent peptide substrate
[13] = molecular target: human ADAM 9 catalytic/disintegrin domains (human) (UniProt Q13443); test: enzyme inhibition, fluorescent peptide substrate
[14] = molecular target: human ADAM 9 catalytic/disintegrin domains (human) (UniProt Q13443); test: enzyme inhibition, fluorescent peptide substrate; remark: listed apart in the source
[15] = molecular target: T1, ADAM 8 catalytic domain (mouse) (mouse) (UniProt Q05910); test: enzyme inhibition, fluorescamine assay with Dnp peptide substrate
T1 sequence (looked up): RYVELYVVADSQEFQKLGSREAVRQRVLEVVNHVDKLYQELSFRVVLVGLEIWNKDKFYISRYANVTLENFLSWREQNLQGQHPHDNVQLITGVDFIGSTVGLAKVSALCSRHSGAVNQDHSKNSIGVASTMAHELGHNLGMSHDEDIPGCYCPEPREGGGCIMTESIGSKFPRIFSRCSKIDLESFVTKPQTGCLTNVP

[16] = molecular target: ADAM 10 on IMPE cells; test: cell-based or functional assay

Sequence of Human TACE protease containing the catalytic/disintegrin domains (human) (P78536 215-671 limits assumed): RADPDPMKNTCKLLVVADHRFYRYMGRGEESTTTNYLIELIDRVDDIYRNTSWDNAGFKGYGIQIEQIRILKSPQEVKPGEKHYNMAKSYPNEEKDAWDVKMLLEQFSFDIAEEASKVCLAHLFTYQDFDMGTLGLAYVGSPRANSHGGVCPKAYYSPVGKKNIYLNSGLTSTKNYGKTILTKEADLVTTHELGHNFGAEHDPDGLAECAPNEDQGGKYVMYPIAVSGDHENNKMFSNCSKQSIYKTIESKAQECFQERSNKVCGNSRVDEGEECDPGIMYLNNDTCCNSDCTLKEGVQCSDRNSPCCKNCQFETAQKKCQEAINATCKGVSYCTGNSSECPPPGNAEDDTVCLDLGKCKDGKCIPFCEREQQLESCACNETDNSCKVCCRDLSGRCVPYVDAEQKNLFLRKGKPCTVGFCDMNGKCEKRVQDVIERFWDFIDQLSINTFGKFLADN
Sequence of human ADAM 9 catalytic/disintegrin domains (human) (Q13443 206-697 limits assumed): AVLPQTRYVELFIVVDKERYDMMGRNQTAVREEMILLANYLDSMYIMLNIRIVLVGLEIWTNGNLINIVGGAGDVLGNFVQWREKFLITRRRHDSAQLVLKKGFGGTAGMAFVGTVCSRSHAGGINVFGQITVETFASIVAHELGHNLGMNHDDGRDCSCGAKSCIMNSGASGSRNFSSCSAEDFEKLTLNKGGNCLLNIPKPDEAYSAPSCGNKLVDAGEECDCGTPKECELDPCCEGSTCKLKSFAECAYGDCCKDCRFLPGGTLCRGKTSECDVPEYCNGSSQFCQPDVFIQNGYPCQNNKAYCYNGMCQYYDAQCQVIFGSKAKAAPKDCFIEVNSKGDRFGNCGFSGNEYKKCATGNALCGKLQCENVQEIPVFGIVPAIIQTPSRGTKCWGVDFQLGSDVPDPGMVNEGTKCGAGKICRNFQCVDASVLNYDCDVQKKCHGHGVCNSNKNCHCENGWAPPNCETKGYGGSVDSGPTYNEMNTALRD
Sequence of mouse ADAM 10 catalytic domain (mouse) (O35598 215-457 limits assumed): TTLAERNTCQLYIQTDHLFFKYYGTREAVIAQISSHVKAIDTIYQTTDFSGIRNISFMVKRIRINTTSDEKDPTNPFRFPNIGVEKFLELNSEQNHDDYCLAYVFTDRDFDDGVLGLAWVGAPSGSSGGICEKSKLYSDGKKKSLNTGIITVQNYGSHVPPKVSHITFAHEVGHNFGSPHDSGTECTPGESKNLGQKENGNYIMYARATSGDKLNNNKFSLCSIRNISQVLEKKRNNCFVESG
Sequence of MMP 1 (P03956 100-469): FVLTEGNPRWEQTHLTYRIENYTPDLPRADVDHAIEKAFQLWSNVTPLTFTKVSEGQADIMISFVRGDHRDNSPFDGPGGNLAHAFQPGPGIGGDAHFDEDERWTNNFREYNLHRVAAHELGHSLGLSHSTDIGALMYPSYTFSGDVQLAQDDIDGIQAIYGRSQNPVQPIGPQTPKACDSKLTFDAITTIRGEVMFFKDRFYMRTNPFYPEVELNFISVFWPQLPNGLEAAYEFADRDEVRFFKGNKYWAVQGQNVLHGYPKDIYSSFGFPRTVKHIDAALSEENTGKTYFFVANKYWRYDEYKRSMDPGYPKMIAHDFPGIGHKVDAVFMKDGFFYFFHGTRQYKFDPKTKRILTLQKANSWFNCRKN
Sequence of TACE catalytic domain (human) (human) (P78536 215-477 limits assumed): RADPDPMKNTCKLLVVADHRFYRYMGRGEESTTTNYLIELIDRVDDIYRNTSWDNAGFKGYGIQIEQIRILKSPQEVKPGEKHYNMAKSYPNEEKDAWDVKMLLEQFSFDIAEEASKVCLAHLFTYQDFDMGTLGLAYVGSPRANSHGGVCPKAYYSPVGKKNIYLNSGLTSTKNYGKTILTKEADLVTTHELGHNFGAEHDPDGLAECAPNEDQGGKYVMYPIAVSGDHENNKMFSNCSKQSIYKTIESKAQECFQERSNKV
Sequence of Human ADAM10 protease containing the catalytic/disintegrin domains (human) (O14672 214-672 limits assumed): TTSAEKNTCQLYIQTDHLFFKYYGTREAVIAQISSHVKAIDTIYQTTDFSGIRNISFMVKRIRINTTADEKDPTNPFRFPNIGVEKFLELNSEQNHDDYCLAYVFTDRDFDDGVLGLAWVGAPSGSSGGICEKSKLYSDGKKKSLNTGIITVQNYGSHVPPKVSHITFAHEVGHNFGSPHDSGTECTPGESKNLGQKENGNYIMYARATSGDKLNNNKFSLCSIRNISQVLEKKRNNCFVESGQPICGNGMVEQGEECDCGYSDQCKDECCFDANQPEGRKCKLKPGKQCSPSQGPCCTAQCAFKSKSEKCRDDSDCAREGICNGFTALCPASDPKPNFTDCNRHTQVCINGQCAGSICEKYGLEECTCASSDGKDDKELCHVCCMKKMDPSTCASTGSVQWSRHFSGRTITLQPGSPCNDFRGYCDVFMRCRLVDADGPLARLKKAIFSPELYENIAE
Sequence of MMP 3 (P08254 100-477): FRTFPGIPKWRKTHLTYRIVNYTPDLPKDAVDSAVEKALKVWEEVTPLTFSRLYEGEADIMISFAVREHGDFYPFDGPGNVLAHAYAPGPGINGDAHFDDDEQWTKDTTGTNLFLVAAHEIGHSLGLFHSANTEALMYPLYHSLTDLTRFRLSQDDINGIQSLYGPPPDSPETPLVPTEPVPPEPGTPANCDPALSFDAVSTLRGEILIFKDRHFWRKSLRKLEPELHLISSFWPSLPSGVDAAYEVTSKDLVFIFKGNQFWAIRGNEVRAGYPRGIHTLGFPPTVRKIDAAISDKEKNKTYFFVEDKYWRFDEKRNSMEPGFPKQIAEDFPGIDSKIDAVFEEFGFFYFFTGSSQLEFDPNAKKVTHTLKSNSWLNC
Sequence of MMP 9 (P14780 107-707): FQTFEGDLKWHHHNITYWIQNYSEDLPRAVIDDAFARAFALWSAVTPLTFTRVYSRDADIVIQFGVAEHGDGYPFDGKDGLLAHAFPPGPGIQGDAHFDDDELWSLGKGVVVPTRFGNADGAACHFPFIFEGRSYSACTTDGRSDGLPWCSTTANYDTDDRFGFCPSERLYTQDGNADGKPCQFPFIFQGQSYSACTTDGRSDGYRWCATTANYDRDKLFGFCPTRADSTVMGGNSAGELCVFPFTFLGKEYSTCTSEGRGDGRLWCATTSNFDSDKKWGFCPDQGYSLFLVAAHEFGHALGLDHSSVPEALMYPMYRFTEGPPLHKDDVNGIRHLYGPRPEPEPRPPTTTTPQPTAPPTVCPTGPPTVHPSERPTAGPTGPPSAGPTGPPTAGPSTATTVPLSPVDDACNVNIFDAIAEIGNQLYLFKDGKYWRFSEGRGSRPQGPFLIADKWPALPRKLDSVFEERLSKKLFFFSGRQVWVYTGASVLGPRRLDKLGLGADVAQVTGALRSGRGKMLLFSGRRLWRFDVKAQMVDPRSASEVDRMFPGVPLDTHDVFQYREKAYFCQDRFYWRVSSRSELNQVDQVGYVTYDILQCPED
Sequence of MMP 2 (P08253 110-660): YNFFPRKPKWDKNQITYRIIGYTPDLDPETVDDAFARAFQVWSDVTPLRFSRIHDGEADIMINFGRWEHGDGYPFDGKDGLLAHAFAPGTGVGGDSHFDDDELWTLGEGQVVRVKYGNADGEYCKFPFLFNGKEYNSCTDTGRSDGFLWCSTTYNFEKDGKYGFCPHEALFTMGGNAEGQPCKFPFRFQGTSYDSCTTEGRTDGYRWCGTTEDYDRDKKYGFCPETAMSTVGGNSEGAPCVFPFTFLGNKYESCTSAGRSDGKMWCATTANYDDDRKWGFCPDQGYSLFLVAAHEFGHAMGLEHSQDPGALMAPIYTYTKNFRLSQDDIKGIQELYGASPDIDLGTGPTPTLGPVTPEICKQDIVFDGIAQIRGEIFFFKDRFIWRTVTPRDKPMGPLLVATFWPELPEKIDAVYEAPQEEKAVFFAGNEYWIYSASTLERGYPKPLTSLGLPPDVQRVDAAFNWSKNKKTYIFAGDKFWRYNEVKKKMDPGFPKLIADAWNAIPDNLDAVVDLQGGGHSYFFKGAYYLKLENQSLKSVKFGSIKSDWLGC

“Pro ADAM 17 (mouse) (from UniProt Q9Z0F8 18-214)” showed a prodomain inhibition of enzyme activity (percent) [1] of 0%.

With “C173S ProADAM 10 23-213 (C-terminal His tag) (from UniProt O35598 23-213)” the inhibition of CD23 shedding in Ramos cells (soluble CD23 ELISA) [2] was 30%, the inhibition of CD23 shedding in U937 cells (soluble CD23 ELISA) [2] was 30% and the Ki [3] was 0.017 µM. It also gave a Ki [4] of 0.036 µM, a Ki [5] greater than 3 µM and a Ki [6] greater than 2 µM. For the same substance, the Ki [7] was greater than 2 µM, the Ki [8] was greater than 2 µM and the Ki [9] was greater than 2 µM. The Ki [10] was greater than 2 µM, the Ki [11] was greater than 2 µM and the Ki [12] was greater than 3 µM. It also gave a Ki [13] greater than 1 µM, a Ki [14] of 1 µM and a Ki [15] greater than 10 µM.

In the case of “ADAM10 prodomain (betacellulin shedding assay, construct not specified)”, the inhibition of calcium ionophore induced betacellulin shedding (BTC ELISA) [16] is reported as 67 % (at 15 µM), the inhibition of calcium ionophore induced betacellulin shedding (BTC ELISA) (% (at 1.5 µM)) [16] is reported as 25 and the inhibition of constitutive betacellulin shedding (BTC ELISA) [16] is reported as 90 % (at 15 µM). The inhibition of constitutive betacellulin shedding (BTC ELISA) (% (at 1.5 µM)) [16] was 75.
